What was measured:
Experiment in all cases: ELISA
[1] = target: hemagglutinin of A/chicken/Guangdong/SD008/2017 (H7N9) (influenza A virus …)
[2] = target: hemagglutinin of A/duck/Guangxi/SDY129/2014 (H7N9) (influenza A virus …)
[3] = target: hemagglutinin of A/pigeon/Shanghai/S1069/2013 (H7N9) (influenza A virus …)
[4] = target: hemagglutinin of A/chicken/Yunnan/SD193/2017 (H7N9) (influenza A virus …)

B1: 1H9 neutralizing antibody (antibody, V domains shown)
VH: VQLQESGPGLVKPSQSLSLTCTVTGYSITSDYTWNWIRQFPGNKLEWMGYITYSDTTSYNPSLKSRISITRDTSKNQFFLQLNSVTTEDTATYYCARSDGWYGFAYWGQGTLVTVSA
VL: DIQMNQSPSSLSASLGDTITITCHASQNINVWLSWYQQKPGNIPKLLIYKAFDLHTGVPSRFSGSGSGTGFTLTISSLQPEDIATYYCQQGQTYPFTFGGGTKLEIK
In the case of B1, the EC50 [1] is reported as 0.0861 µg/mL, the EC50 [2] is reported as 0.0808 µg/mL and the EC50 [3] is reported as 0.0837 µg/mL. For the same binder, the EC50 [4] was 0.195 µg/mL.

B2: 2D7 neutralizing antibody (antibody, V domains shown)
VH: VQLQESGPGLVKPSQSLSLTCTVTGYSITSDYTWNWIRQFPGNKLEWMGYISYSGSTSYNPSLKSRMSITRDTSKNQFLLQLNSVTTADTATYYCTRDGPYWHIDVWGAGTTVTVSS
VL: DIQMNQSPSSLSASLGDTITITCHASQTINIWLSWYQLKPGNIPKLLIYKASNLHTGVPSRFSGSGSGTGFTLTISSLQPEDIASYYCQQGQSFPYTFGGGTKLEIK
For B2, the EC50 [1] was 0.0561 µg/mL, the EC50 [2] was 0.0535 µg/mL and the EC50 [3] was 0.0857 µg/mL. For the same binder, the EC50 [4] was 0.0539 µg/mL.

— paper PMC11784312 (2024)
